# How the values were obtained:
# Experiment in all cases: purified protein
# c1ccc(OCC2CO2)cc1 = conditions: 50 mM Tris pH 8.0, 30 °C, 30 min, 2 μg protein
# c1ccc(OC[C@@H]2CO2)cc1 = conditions: 50 mM Tris pH 8.0, 30 °C, 30 min, 2 μg protein
# c1ccc(OC[C@H]2CO2)cc1 = conditions: 50 mM Tris pH 8.0, 30 °C, 30 min, 2 μg protein
# c1ccc(COCC2CO2)cc1 = type: biochemical, Yarrowia lipolytica; conditions: 50 mM Tris pH 8.0, 30 °C, 30 min, 2 μg protein
# c1ccc(COC[C@@H]2CO2)cc1 = type: biochemical, Yarrowia lipolytica; conditions: 50 mM Tris pH 8.0, 30 °C, 30 min, 2 μg protein
# c1ccc(COC[C@H]2CO2)cc1 = type: biochemical, Yarrowia lipolytica; conditions: 50 mM Tris pH 8.0, 30 °C, 30 min, 10 μg protein
substance,measurement,setting,value
Ylehd (Yarrowia lipolytica),Km,c1ccc(OCC2CO2)cc1,600 ± 9 µM
same,kcat,c1ccc(OCC2CO2)cc1,7.34 s⁻¹
same,kcat/Km,c1ccc(OCC2CO2)cc1,12200 M⁻¹ s⁻¹
same,Km,c1ccc(OC[C@@H]2CO2)cc1,930 ± 71 µM
same,kcat,c1ccc(OC[C@@H]2CO2)cc1,15.7 s⁻¹
same,kcat/Km,c1ccc(OC[C@@H]2CO2)cc1,16600 M⁻¹ s⁻¹
same,Km,c1ccc(OC[C@H]2CO2)cc1,1320 ± 45 µM
same,kcat,c1ccc(OC[C@H]2CO2)cc1,33.8 s⁻¹
same,kcat/Km,c1ccc(OC[C@H]2CO2)cc1,25500 M⁻¹ s⁻¹
same,Km,c1ccc(COCC2CO2)cc1,150 ± 2 µM
same,kcat,c1ccc(COCC2CO2)cc1,5.73 ± 0.54 s⁻¹
same,kcat/Km,c1ccc(COCC2CO2)cc1,38200 ± 1080 M⁻¹ s⁻¹
same,Km,c1ccc(COC[C@@H]2CO2)cc1,270 ± 24 µM
same,kcat,c1ccc(COC[C@@H]2CO2)cc1,12 ± 0.97 s⁻¹
same,kcat/Km,c1ccc(COC[C@@H]2CO2)cc1,44700 ± 870 M⁻¹ s⁻¹
same,Km,c1ccc(COC[C@H]2CO2)cc1,800 ± 10 µM
same,kcat,c1ccc(COC[C@H]2CO2)cc1,3.45 ± 0.089 s⁻¹
same,kcat/Km,c1ccc(COC[C@H]2CO2)cc1,4310 ± 70 M⁻¹ s⁻¹

# Reference: paper PMC9079618, “Evaluating Ylehd, a recombinant epoxide hydrolase from Yarrowia lipolytica as a potential biocatalyst for the resolution of benzyl glycidyl ether” (RSC Advances, 2018)
